Measurements: patent US20200024330A1

Columns and labels:
Assay in all cases: cell-based or functional assay
[1] = biological target: HIV-1 92RW009 envelope glycoprotein (Env) (HIV-1)
[2] = biological target: HIV-1 92RW026 envelope glycoprotein (Env) (HIV-1)
[3] = biological target: HIV-1 93UG077 envelope glycoprotein (Env) (HIV-1)
[4] = biological target: HIV-1 94KE105 envelope glycoprotein (Env) (HIV-1)
[5] = biological target: HIV-1 98CN009 envelope glycoprotein (Env) on pseudovirus (HIV-1)
[6] = biological target: HIV-1 Env of isolate 92UG001 (clade D) (HIV-1)
[7] = biological target: HIV-1 Env of isolate MGRM-G-014 (clade G pseudovirus) (HIV-1)
[8] = biological target: HIV-1 Env of isolate MGRM-G-024 (clade G pseudovirus) (HIV-1)
[9] = biological target: HIV-1 Env of pseudovirus APV_6, clade B (HIV-1)
[10] = biological target: HIV-1 Env of pseudovirus MGRM-Chronic-B-001, clade B (HIV-1)
[11] = biological target: HIV-1 Env of pseudovirus PVO.4 (Acute), clade B (HIV-1)
[12] = biological target: HIV-1 LAVI_C3 Env (HIV-1)
[13] = biological target: HIV-1 MGRM-A-003 envelope glycoprotein (Env) (HIV-1)
[14] = biological target: HIV-1 MGRM-A-005 envelope glycoprotein (Env) (HIV-1)
[15] = biological target: HIV-1 MGRM-A-006 envelope glycoprotein (Env) (HIV-1)
[16] = biological target: HIV-1 MGRM-C-015 Env (HIV-1)
[17] = biological target: HIV-1 MGRM-F1-004 Env (pseudovirus) (HIV-1)
[18] = biological target: HIV-1 MGRM-F1-006 Env (pseudovirus) (HIV-1)
[19] = biological target: HIV-1 Env of isolate 97ZA012 (HIV-1)
[20] = biological target: HIV-1 Env of isolate 98CN006 (HIV-1)
[21] = biological target: HIV-1 Env of isolate 98IN022 (HIV-1)
[22] = biological target: HIV-1 Env of isolate MGRM-C-006 (HIV-1)
[23] = biological target: HIV-1 Env of isolate MGRM-C-019 (HIV-1)
[24] = biological target: HIV-1 Env of isolate MGRM-C-028 (HIV-1)
[25] = biological target: HIV-1 Env of isolate MGRM-D-001 (HIV-1)
[26] = biological target: HIV-1 Env of isolate MGRM-D-016 (HIV-1)
[27] = biological target: HIV-1 Env of isolate MGRM-D-022 (HIV-1)
[28] = biological target: HIV-1 Env of isolate MGRM-F1-017 (subtype F), on pseudovirus (HIV-1)
[29] = biological target: HIV-1 Env of isolate MGRM-F1-021 (subtype F), on pseudovirus (HIV-1)
[30] = biological target: HIV-1 Env of isolate SC422661.8 (HIV-1)
[31] = biological target: HIV-1 JR-CSF Env N197A (HIV-1 (isolate JR-CSF)) (UniProt P20871)
[32] = biological target: HIV-1 JR-CSF Env N478A (HIV-1 (isolate JR-CSF)) (UniProt P20871)
[33] = biological target: HIV-1 JR-CSF Env R480A (HIV-1 (isolate JR-CSF)) (UniProt P20871)
[34] = biological target: HIV-1 MGRM-C-027 envelope glycoprotein (Env) on pseudovirus (HIV-1)

| Substance | IC50 (µg/ml), pseudovirus neutralization [1] | IC50 (µg/ml), pseudovirus neutralization [2] | IC50 (µg/ml), pseudovirus neutralization [3] | IC50 (µg/ml), pseudovirus neutralization [4] | IC50 (µg/ml), pseudovirus neutralization [5] | IC50 (µg/ml), pseudovirus neutralization [6] | IC50 (µg/ml), pseudovirus neutralization [7] | IC50 (µg/ml), pseudovirus neutralization [8] | IC50 (µg/ml), pseudovirus neutralization [9] | IC50 (µg/ml), pseudovirus neutralization [10] | IC50 (µg/ml), pseudovirus neutralization [11] | IC50 [12] | IC50 (µg/ml), pseudovirus neutralization [13] | IC50 (µg/ml), pseudovirus neutralization [14] | IC50 (µg/ml), pseudovirus neutralization [15] | IC50 [16] | IC50 (µg/ml), pseudovirus neutralization [17] | IC50 (µg/ml), pseudovirus neutralization [18] | also measured |
| --- | --- | --- | --- | --- | --- | --- | --- | --- | --- | --- | --- | --- | --- | --- | --- | --- | --- | --- | --- |
| b12 (antibody) | > 50 µg/mL | > 50 µg/mL | 47 µg/mL | > 50 µg/mL | 1.52 µg/mL | 1.01 µg/mL | > 50 µg/mL | 2.38 µg/mL | > 50 µg/mL | 0.75 µg/mL | > 50 µg/mL | 0.94 µg/mL | > 50 µg/mL | 3.64 µg/mL | 13.6 µg/mL | 13.3 µg/mL | > 50 µg/mL | > 50 µg/mL | – |
| 1495_C14 (PGC14) (antibody) | > 50 µg/mL | > 50 µg/mL | > 50 µg/mL | > 50 µg/mL | 43 µg/mL | > 50 µg/mL | > 50 µg/mL | > 50 µg/mL | 23 µg/mL | > 50 µg/mL | > 50 µg/mL | 12 µg/mL | > 50 µg/mL | > 50 µg/mL | > 50 µg/mL | > 50 µg/mL | > 50 µg/mL | > 50 µg/mL | – |
| 5147_N06 (PGT-130) (antibody) | – | – | – | – | – | – | – | – | – | – | – | – | – | – | – | – | – | – | IC50 [19]: 1.32 µg/mL; IC50 [20]: 0.258 µg/mL; IC50 [21]: > 50 µg/mL; IC50 [22]: 0.095 µg/mL; IC50 [23]: 0.01 µg/mL; IC50 [24]: > 50 µg/mL; IC50 [25]: > 50 µg/mL; IC50 [26]: > 50 µg/mL; IC50 [27]: > 50 µg/mL; IC50, pseudovirus neutralization [28]: > 50 µg/mL; IC50, pseudovirus neutralization [29]: > 50 µg/mL; IC50 [30]: > 50 µg/mL; Fold IC50 increase relative to wild-type [31]: 1.2 fold; Fold IC50 increase relative to wild-type [32]: 0.8 fold; Fold IC50 increase relative to wild-type [33]: 1 fold; IC50 (ug/ml), neutralizing activity [34]: 0.0052 µg/mL |
| 2F5 (antibody) | 39.1 µg/mL | 8.63 µg/mL | 3.3 µg/mL | > 50 µg/mL | > 50 µg/mL | 13 µg/mL | 9.65 µg/mL | 1.07 µg/mL | 0.25 µg/mL | 0.55 µg/mL | > 50 µg/mL | > 50 µg/mL | 7.37 µg/mL | 5.7 µg/mL | 15.7 µg/mL | > 50 µg/mL | 4.31 µg/mL | 1.1 µg/mL | – |
| 2G12 (antibody) | 26.1 µg/mL | 17.2 µg/mL | > 50 µg/mL | 7.22 µg/mL | > 50 µg/mL | > 50 µg/mL | > 50 µg/mL | > 50 µg/mL | 1.9 µg/mL | 0.08 µg/mL | 0.8 µg/mL | > 50 µg/mL | > 50 µg/mL | > 50 µg/mL | 13.8 µg/mL | 1.75 µg/mL | > 50 µg/mL | > 50 µg/mL | – |
| 1443_C16 (PG16) (TCN-116) (antibody) | 0.11 µg/mL | 0.03 µg/mL | > 50 µg/mL | 6.13 µg/mL | 5.76 µg/mL | > 50 µg/mL | 6.98 µg/mL | 0.01 µg/mL | 0.29 µg/mL | > 50 µg/mL | 5.43 µg/mL | 9.55 µg/mL | 2.65 µg/mL | 0.09 µg/mL | > 50 µg/mL | 0.26 µg/mL | 0.43 µg/mL | 0.27 µg/mL | – |
| 5114_A19 (PGT-128) (antibody) | – | – | – | – | – | – | – | – | – | – | – | – | – | – | – | – | – | – | IC50 [19]: 0.019 µg/mL; IC50 [20]: 0.015 µg/mL; IC50 [21]: 0.014 µg/mL; IC50 [22]: 0.014 µg/mL; IC50 [23]: 0.01 µg/mL; IC50 [24]: 14.4 µg/mL; IC50 [25]: 0.138 µg/mL; IC50 [26]: > 50 µg/mL; IC50 [27]: > 50 µg/mL; IC50, pseudovirus neutralization [28]: 11.7 µg/mL; IC50, pseudovirus neutralization [29]: > 50 µg/mL; IC50 [30]: 1.58 µg/mL; Fold IC50 increase relative to wild-type [31]: 1 fold; Fold IC50 increase relative to wild-type [32]: 0.8 fold; Fold IC50 increase relative to wild-type [33]: 0.1 fold |
| 4E10 (antibody) | > 50 µg/mL | 12.9 µg/mL | 10.6 µg/mL | 7.63 µg/mL | 2.46 µg/mL | 13.6 µg/mL | 13.7 µg/mL | 1.57 µg/mL | 1.1 µg/mL | 1.46 µg/mL | 18.3 µg/mL | 2.85 µg/mL | 5.94 µg/mL | 4.09 µg/mL | 9.87 µg/mL | 2.52 µg/mL | 2.74 µg/mL | 1.01 µg/mL | – |
